The assay has as its target human telomerase reverse transcriptase hTERT (WT) (human) (UniProt O14746). Briefly: sucrose gradient sedimentation.

The stoichiometry N is a count of units in the complex or per binding partner. On to “human telomerase reverse transcriptase hTERT (WT) (from UniProt O14746 1-1132) (enzyme)”, for which the stoichiometry N is 2.

For the origin of these results see paper PMC3785136.
